Source: a protein production outcome set (Wang et al. 2014)

Assay: label from the status in PepcDB records
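Further: failed if final PepcDB status was selected cloned or expressed and not failed if soluble or beyond.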

| Sequence | protein production |
| --- | --- |
| MTFHWKDLTPWRRIKGVAITILYLLFCIWAGPFWLIFLPLIVDYYFFHIIKWGWYKNIRNKTLRIICSWVADIIYCVVAVTFIFAFLFQNFAIPTSSLEKTLLIGDYLFVSKLSYGPRSPMTPLGVPLTHNTMPLTGGKSFSDKPLLPYKRLKGFGHVKEGDLVVFNFPAGDTVAVKQPNPDYYMWKKLVGREELWSNPDFYGEIVYRPVDRRDHYVKRCVGMPGQELSIRNNQIYIDGKEQRNPRNMQLNYLVRMSREMSVDLIDELGISYDDVRAASSEELKASVGSNLIDSASNQPQIIYHLPLTQGMLDKLQAEPSFVKAVEEPTPIGPLYPLEYETGWTRDNYGPIVIPAKGMTVRLTPLNLALYSRCIRNFEGNKLVQKADGTVLINGRPADSYTFKMDYYFMMGDNRHNSADSRYWGFVPEDHIVGKPVFIWLSLNKDKSLFGGKIRFGRMMRTVNAD | failed |
| MTFLPTSLKFFSSLSRASGAVWTEATKRKAPHKPLLLLAVLDLVHRGVITTPFIAVSGDLVELNELFNLYWRRIIPLGQTSSIAFPFSRLAREPFWELVPQPGKNITDAVINNTSSVSYLRKYALGAKLDDGLFRVMASGEGREALREALLLSCFSPEASAQLREQSIINREAFDYSRLLEEQAHLPLVKEIVEADNYRPTVRDQAFRKVVTSAYDHRCALCGIRIVTPDGHTVVEAAHIVPWSRSQNDDIRNGMALCRTCHWGFDEGMLGVSDNYTVITSRSIGIDPNFPGLLQTLSGRGIIPPADPDKFPAREYLAEHRRAWRL | failed |
| MTFNALRPVASKVIDPLADFFIRYEVSPDTVSIVSLICAFFAGLSFYYSPAYQELALLAGILVVFNSLFDALDGVIARKSNRATPRGDFLDHVIDRYSDVFIICSIFFAGYVSWQIGVAAIVGVLLTSYLGTQAQALNLGRYYGGIMGRADRLVVIILAAFANSVYPASIAGFPILGWAVILIAVTSHITAIQRIMYIWRRLD | failed |
| MTFPLALIAKNTPANSMIMTKLPSVKVKTEGYNPSVNVNELFAYVDLSGSEPGEHDYEVKVDPIPNIKIVEISPRVVTLQLEHHHHHH | not failed |
| MTFRKPPPTMKPTRSLSASLFSDPHPAAYLAAFAAVMATAVARLYLPEAFTAPSSFLLFVPAVLISAALGGVGPGVFGTTFAWAAVWWVTRDIPFDLVSGLSAAIFLSVGFGMAVGGGWFHAARRRAAAVNDHLRSILDTVPDAVVVIDRAGIMTSFSPAAQRMFGWSEAEAIGKNVSLLMPEPYQSAHDGYLDRYARTGEKRIIGAGRVVVGRRKDGSTFPMELAVGETRGPTPSFTGFIRDLTERQETETRLQELQNELVHVSRLTAMGEMASTLAHELNQPLSAIANLLTGSRRLMDRGREADQAKVRDAIDRAAAQALRAGEVIHRMRDFARRGASEREVESLSKLIEEASALALIGEKERQVDVRLKLDPKADDVFADRVQIQQVLLNLIRNGIDAMQAQEPRKRALLIRTGLTEEGWSEVSVADTGPGIAPEVLERLFQPFMTTKPQGMGVGLSISRSIIEAHGGRIWAEANPGGGALFRFTLPPAESLAGEKETIDD | failed |
| MTFRNCVAVDLGASSGRVMLARYERECRSLTLREIHRFNNGLHSQNGYVTWDVDSLESAIRLGLNKVCEEGIRIDSIGIDTWGVDFVLLDQQGQRVGLPVAYRDSRTNGLMAQAQQQLGKRDIYQRSGIQFLPFNTLYQLRALTEQQPELIPHIAHALLMPDYFSYRLTGKMNWEYTNATTTQLVNINSDDWDESLLAWSGANKAWFGRPTHPGNVIGHWICPQGNEIPVVAVASHDTASAVIASPLNGSRAAYLSSGTWSLMGFESQTPFTNDTALAANITNEGGAEGRYRVLKNIMGLWLLQRVLQERQINDLPALISATQALPACRFIINPNDBRFINPETMCSEIQAACRETAQPIPESDAELARCIFDSLALLYADVLHELAQLRGEDFSQLHIVGGGCQNTLLNQLCADACGIRVIAGPVEASTLGNIGIQLMTLDELNNVDDFRQVVSTTANLTTFTPNPDSEIAHYVARIHSTRQTKELCA | not failed |
| MTFRYRGPSPKGDQPKAIAGLVEALRDGERFVTLLGATGTGKTVTMAKVIEALGRPALVLAPNKILAAQLAAEFRELFPENAVEYFISYYDYYQPEAYVPGKDLYIEKDASINPEIERLRHSTTRSLLTRRDVIVVASVSAIYGLGDPREYRARNLVVERGKPYPREVLLERLLELGYQRNDIDLSPGRFRAKGEVLEIFPAYETEPIRVELFGDEVERISQVHPVTGERLRELPGFVLFPATHYLSPEGLEEILKEIEKELWERVRYFEERGEVLYAQRLKERTLYDLEMLRVMGTCPGVENYARYFTGKAPGEPPYTLLDYFPEDFLVFLDESHVTVPQLQGMYRGDYARKKTLVDYGFRLPSALDNRPLRFEEFLERVSQVVFVSATPGPFELAHSGRVVEQIIRPTGLLDPLVRVKPTENQILDLMEGIRERAARGERTLVTVLTVRMAEELTSFLVEHGIRARYLHHELDAFERQALIRDLRLGHYDCLVGINLLREGLDIPEVSLVAILDADKEGFLRSERSLIQTIGRAARNARGEVWLYADRVSEAMQRAIEETNRRRALQEAYNLEHGITPETVRKEVRAVIRPEGYEEAPLEADLSGEDLRERIAELELAMWQAAEALDFERAARLRDEIRALEARLQGVRAPEPVPGGRKRKRR | not failed |
| MTFSAPAPTQLDPVVRHLYVHVPFCPSICPYCDFHVLTRQAGLVERYLERLEQEAAELAAAYAVDLDTVYLGGGTPSFLRDHELRALVESVQRHLGWGRAENTLEINPGTVSTERAALWRSLGFDRASVGVQSLDDATLKFLGRRHDARQARDAVSRLIAQDFRVSGDLITAVPGQPLDSDIHGLVELGVGHVSAYTLTIEPGTEFARRGVQVDEDAEREGFERTEELLAGHGFSRYEVSNYARAGQESRHNLSYWQGKTYLGLGPGAAGHYPVPTPGADALTLRRTNPHLHDWLVGQQGETLLVDPHEYVTDALFMGLRLRRGLDLADLTRRSGVDVAGRYGLVIERQVRLGLLEHSGTNLRATAQGWWVLNRIVREFMEVDAAETA | failed |
| MTFSNQLTILRIILVPVFVLLLMQDSAWYRLLGVIVFVTASLTDIYDGYHARKYGEVTRLGAFLDPLADKLLITTAFLFYVWEGYLALWMVLLVAARDIVVTGLRVYAEHIDHPVVTSKEAKYKTFAQNLFAYVIMLFILLKEKSFFGPKMAAFMEVILHSPWLGYAMFAITLFTVWTGVSYLISNRRLIFRNSAGGR | not failed |
| MTFTDALGQAHAPVDTTPRIASLVPSITDLLFSLDLGGQLVARTGFCIHPREAVRAIPKVGGTKTVKLDRLRELAPTHVIVNIDENTRETADKLREFVPHVIVTHPCAPEDNLTLYGLLGGIFRREAQAQRLSEALARELAALRGQVFPLRRVLYAIWQDPWMTVARDTYISRMLALIGCQTWPEDPAPVQCGTGRHGDCARPNRPDTRYPTFRWSDEVVRNIDCVLLSTEPYSFTEAHADALEKQIGKPVYLVDGEMVSWYGSRAIEGVRYLGRLAQALT | failed |
| MTFYDREAELDTLSDAVESPGADFVVVYGRRRVGKTELLKEFCANRPHIYFLAAQEAEHRQREKFLDQVADYFDERVPRIDGWDEAFEYLGEQLQREDLVVVIDEFPYLVAENDSLPSYVQGFVDQELDGTDSMIVLCGSSVSTMESEILGHESPLYGRRTAQLDVTPFSFQQAREVISYDIQDAIRSYAVTGGTPMYLTLFDYTQSLAANIQSHVLSPSAVLYNEPEFLLRTELRNPARYMSILEAVALGHTTPNEISGATGIDSGPLSKYLQTLRRLRLIERDVPVMASGKKSKRSRYRVADEFLRFWFRYVEPNRSSIEEAPEIVYDGTIEPDLPTHVATTFEDVCQEAVWEGIRRGTFDPYSEVGRWWYGEEEIDIVGLAPNDDRVLLAECKWTTDPVGEDLVESLRAKAEHVRWGPPDRDEQFALFSKSGFVDGLEAQLDDSWSLFTVADIDDLLTPS | failed |
| MTGCFLWQLYLPKLQTGSLKPEVPPAPVKMCPRHPELVPLAHPLPVLKEALEKVDGILRKAMLAPGLAAMSALVIHNDTVLWTGNFGRKNGSDPNSGTPNEYTMYRIASISKIFPVLMLYRLWEEGIVDSLDDPLERYASTFSINNPLGTAQGPGAQGPTGESEEMGSLPRPSPVTLRRMASQLSGLPRRLRGTSLLWRGSTQEALSLLKDDVLVADPGTRCHYSTLAFSLLAHVLAAHRAQGDYERWVSEQVLEPLGMSDTGFALTGTVRARLAAGFYGSGRSAPLYDLGWYRPSGQMYSTAADLARLAAALLGAGPRRLLRPDSLATLLAPLRACAHGYFASETGTPWEFHERRGYRVARKDGDLDGYAASLALVPPLRLGFVLLLAGPRPPTRDLVADALDTLLPALERALREAELAPAPPPRARPFAGFFTFANRTFYEVRAAGPRGELRLRQFGPRVEALVPAAFRSLALRHVRGRVFQLHVAREFPCALPLADAWLSLESQHGQLVRFYPLDRHGLAPGFDSCDSMDGWNTTCSAVHFLEDVWVVYNLQFL | failed |
| MTGDYALCGWRVRIDRPSTFAPPWIGEDRPVDITIRHAAFSPPSPPLLFESPLVGVFAEGAIVLRINPGLGFLIEGGARITVDATAQTGEAEIATFLFGQCLGFLALQRRQPALRAASVVRDGRAVVLAGAAGVGKSTLAAALMAKGWGLLADEVTLIDPRTLLIPPAFGRIKLWKDSATHLGLEAAALPAVRPGWNKGHAPYGGHLAPAPVPLAAIILIEQAYTAKTAGIDKIAPREALAALNDQLHGGTFAGALAARPACFDLLTTLVGGVPVFQLSRPWHGMTLAPLVELLTAEMARLEHHHHHH | failed |
| MTGEGRYEEVEAEARTLAALPRRPWRRRPPHWEARVLATGAAVMHGRMAEALDELDTLIAELEPVGLNSQMLRLIARSNRVVALSGLRRYAEAETVANGVLRELNQIAHRAPVSGLETNTLRHLATVLCGLARHEEAEAVVRGNLSRANGPAAGVLHTTLAQSLNGQGRYEEALAEVRRSPPRPPRYAAGHPDLVAAEALYGLGRRAEAEDAVRRSLADCERWLHPAHPRTGEARALLARVTGPKPGEESRGEPGE | failed |
| MTGFASLPVEFLITVFAMSFSIGFVAIIAGTGGGVLFTSCLWDLHQYIRTNKSNRTSFGDCWAIGPTINLIMLAPLKIATTTSAVVISIGDTAAIFPYFMSGSLLPIFAVPAVAGLMTGARFGSAVAVRVKAKYIRYTLTTILLFAGIKLIWVGLWMLEG | failed |
| MTGIWEENTGKQSGDHSTPLRWRCFKHEKNRPPSLVPGQQSGIILACFRRGPPPRCLVKRLPYPGSALVLRRYIMSTSPVTLMVARRVADGRYQDLIAWLREGEQLATDFPGYLGSGVLAPPPNDDEFQIIFRFADESTLHTWEHSASRTAWLARGSDLFAHPSEHRVSGIDGWFGAAGHRPPRWKQAVAIWLAFFPVSLLFNFVLGPLLGDLSLLPRVFVSTLALTPLMVYFFIPLSTRLLANWLNSTPARPLPATPSTQNP | failed |
| MTGKAKPKKHTAKEIQAKIDAALTNRGGGKAGIADRTGKEKGGHAKYECPHCKITAPGLKTMQIHHESKHPNIIYEESKLVNLHAVLAPVAESKPKPGIRGSLKK | failed |
| MTGPLAAARSVAATKSMTAPTVDERPDIKKGLAGVVVDTTAISKVVPQTNSLTYRGYPVQDLAARCSFEQVAFLLWRGELPTDAELALFSQRERASRRVDRSMLSLLAKLPDNCHPMDVVRTAISYLGAEDPDEDDAAANRAKAMRMMAVLPTIVAIDMRRRRGLPPIAPHSGLGYAQNFLHMCFGEVPETAVVSAFEQSMILYAEHGFNASTFAARVVTSTQSDIYSAVTGAIGALKGRLHGGANEAVMHDMIEIGDPANAREWLRAKLARKEKIMGFGHRVYRHGDSRVPTMKRALERVGTVRDGQRWLDIYQVLAAEMASATGILPNLDFPTGPAYYLMGFDIASFTPIFVMSRITGWTAHIMEQATANALIRPLSAYCGHEQRVLPGTF | not failed |
